According to a protein production outcome set (Wang et al. 2014):
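Also: failed if final PepcDB status was selected cloned or expressed and not failed if soluble or beyond.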

Test: label from the status in PepcDB records
In the case of “MDALLTKFNEDRSLQDENLSQPRTRVRIVDDNLYNKSNPFQLCYKKRDYGSQYYHIYQYRLKTFRERVLKECDKRWDAGFTLNGQLVLKKDKVLDIQGNQPCWCVGSIYCEMKYKPNVLDEVINDTYGAPDLTKSYTDKEGGSDEIMLEDESGRVLLVGDFIRSTPFITGVVVGILGMEAEAGTFQVLDICYPTPLPQNPFPAPIATCPTRGKIALVSGLNLNNTSPDRLLRLEILREFLMGRINNKIDDISLIGRLLICGNSVDFDIKSVNKDELMISLTEFSKFLHNILPSISVDIMPGTNDPSDKSLPQQPFHKSLFDKSLESYFNGSNKEILNLVTNPYEFSYNGVDVLAVSGKNINDICKYVIPSNDNGESENKVEEGESNDFKDDIEHRLDLMECTMKWQNIAPTAPDTLWCYPYTDKDPFVLDKWPHVYIVANQPYFGTRVVEIGGKNIKIISVPEFSSTGMIILLDLETLEAETVKIDI”, the protein production was “failed”. With “MDANEFHWLMDMLESVEVGLVVLDLDFHVQAWNGFMEHHSGITARQIRDKVLFEVFPDIPEAWLTRKVDAVAMLNTRAFTSWEQRPYLFKFRNTRPITGTEEYMFQNLTISPITAPNGEVEKVCLLVYDVTEFASSKRALERANEQLAKLSMTDRLTGLLNRGTWENLVDAEYERFRRYGQATSLVMFDIDHFKPVNDTYGHLAGDEVIRHTADVTRNNIRQSDSAGRYGGEEFGIILPETDAESARVICERIREAIEKSTVSTSAGDIQYTVSMGIAQLTETPENYMQWMQKADEALYKAKESGRNKVVVSLEHHHHHH” the protein production was “failed”. With “MDAPKAGYAFEYLIETLNDSSHKKFFDVSKLGTKYDVLPYSIRVLLEAAVRNCDGFLMKKEDVMNILDWKTKQSNVEVPFFPARVLLQDFTGIPAMVDFAAMREAVKTLGGDPEKVHPACPTDLTVDHSLQIDFSKCAIQNAPNPGGGDLQKAGKLSPLKVQPKKLPCRGQTTCRGSCDSGELGRNSGTFSSQIENTPILCPFHLQPVPEPETVLKNQEVEFGRNRERLQFFKWSSRVFKNVAVIPPGTGMAHQINLEYLSRVVFEEKDLLFPDSVVGTDSHITMVNGLGILGWGVGGIETEAVMLGLPVSLTLPEVVGCELTGSSNPFVTSIDVVLGITKHLRQVGVAGKFVEFFGSGVSQLSIVDRTTIANMCPEYGAILSFFPVDNVTLKHLEHTGFSKAKLESMETYLKAVKLFRNDQNSSGEPEYSQVIQINLNSIVPSVSGPKRPQDRVAVTDMKSDFQACLNEKVGFKGFQIAAEKQKDIVSIHYEGSEYKLSHGSVVIAAVISCTNNCNPSVMLAAGLLAKKAVEAGLRVKPYIRTSLSPGSGMVTHYLSSSGVLPYLSKLGFEIVGYGCSTCVGNTAPLSDAVLNAVKQGDLVTCGILSGNKNFEGRLCDCVRANYLASPPLVVAYAIAGTVNIDFQTEPLGTDPTGKNIYLHDIWPSREEVHRVEEEHVILSMFKALKDKIEMGNKRWNSLEAPDSVLFPWDLKSTYIRCPSFFDKLTKEPIALQAIENAHVLLYLGDSVTTDHISPAGSIARNSAAAKYLTNRGLTPREFNSYGARRGNDAVMTRGTFANIKLFNKFIGKPAPKTIHFPSGQTLDVFEAAELYQKEGIPLIILAGKKYGSGNSRDWAAKGPYLLGVKAVLAESYEKIHKDHLIGIGIAPLQFLPGENADSLGLSGRETFSLTFPEELSPGITLNIQTSTGKVFSVIASFEDDVEITLYKHGGLLNFVARKFS” the protein production was “not failed”. In the case of “MDCIRNNSVLINNLSSFTSGIMSSGYSPFYILYIAMNIATLTYAVGTLFYGLPIPIYGLKKWGPRMMSDAIYAAVWVNIYGIIIFAIGQIQSLLGVDWSSFFSSILQLQANMFSALIQVKSLYYIITTEKISMALALLADPVLQFSSFITDIIFLLQFFIDLGEFIQQSYMILIAIGILLLSLPFRMGKGVGGTLISSAIIFYIGLPYLPIFMQEMSSITLSQIGSQLSTITDVNTLVETIAGVVPELVIVFIIIPMLYLSILAGISLGLGNAIGGSSGRVPFPLDLF”, the protein production was “failed”. For “MDCKKFIQMVEEKKRRVLEKQEAPLKWEQKLEAAANAKADTETKVKRSKGPKRKQRAASESSSESDSSSEVRRKSRRSHNKHRRHAHSDSDDSDRRKEKKSRRQKRRSLSPSDDSTGDYESGSEDELRMKIKHHRRHKWHSSRKTCDDDSTEDVRRKHLKHHRRSEVVTSSDSEEESGRRRRGKYHRHNRGSASSSGSEEDSGKSMKRRQHKRHRLAESSSEEDGAMRRTRHHKHGRDSASESDGRR”, the protein production was “failed”. In the case of “MDCRKMARFSYSVIWIMAISKVFELGLVAGLGHQEFARPSRGYLAFRDDSIWPQEEPAIRPRSSQRVPPMGIQHSKELNRTCCLNGGTCMLGSFCACPPSFYGRNCEHDVRKENCGSVPHDTWLPKKCSLCKCWHGQLRCFPQAFLPGCDGLVMDEHLVASRTPELPPSARTTTFMLVGICLSIQSYY”, the protein production was “failed”. For “MDDAERERGPWHRNLIVLWFCTFVAGMAFSEIMPFLSLFVSQLGDFTKAQITFYSGLAFAADYAISAISAPLWGIIADKKGRKIMLLRASLGMAVAMGLMGFVTNVWQLVALRALQGVFAGFISNAQALVASQTPRKYSGRALSTLITGAVSGQLFGPVIGGLLAQLFSIRNTFFITAGLLMVAFLLSLFFVQEHFKPVAHHREPGDSRNPLAAFQNPRLIIVMLCSTAIVQFGNASIAPIISLYVRELMHYRGPITVVAGIIAALPGISNIFSAPRLGRYGDQHGSGKVLLFGYIFAVIMYFPQGIVTSVVALGILRFAIGISDGALYPEIQTVLTKNTPVHLTSTIFSYNQSFQAIGNMFGALLGGLVAGWFNYNAVFIMTALLLLINLGLILWLVPDIWKNGKRAVS”, the protein production was “failed”. In the case of “MDDETLRLQFGHLIRILPTLLEFEKKGYEPSLAEIVKASGVSEKTFFMGLKDRLIRAGLVKEETLSYRVKTLKLTEKGRRLAECLEKCRDVLGS”, the protein production was “not failed”. For “MDDSKSSYKLGLFVVSALVSLFVVLFILGGRSLFEPKIIVETYFDESVSGLEVGAPVRFRGITAGEVVSIELSDALYEAAVPRENRKSYVVVRSEITGAKRTIEEWNRSIEISIERGLRATTQLAGITGQQYLSFDYTSMDEGLSFNWKPNYPYVPSTKSSAGKIVSGIQSLIARLDEADINTLVANINMLIETLNQSISALDADALNAQLLALLINSNQMVKSVDGVISDPEVKEIVSSLAQISKSLNSSLKDKGDINKLIKHLDRAAVRLDVIMADNQSDINYVIKDLRVTVENLKSFSETLKNQPSSIIFSSEPEKLKIN”, the protein production was “failed”. For “MDDVQVERILQNPKFKKMVSKKATLSWTLTIIMLIVYVGFMLLVGYNKEFLMSSFSGGVTTWGIPLGLGIIVLSFVLCGVYSYIANNTLDQLNEEALREVENITHEKGLH”, the protein production was “failed”. For “MDECTVTRHYEGKGRNAGRLGAVGCKNRHGEFRIGSGFKDKDRDNPPKIGTLITYRYRGFTRKGTPKFATFVRVRTDLEHHHHHH”, the protein production was “not failed”. In the case of “MDEKNIVALLGQPNVGKTTLFNHLTGMKQRIGNWPGVTVEKKEGFFKKNNENYVVVDLPGIYSLMSDSIDQKIARDYIVENSKITVIDVIDTPNINRNLYLTIQLLELGISPILCLNLIDEAEKFGIYVNDQKLSEKLGVPVIRTSGRHKIGIDNLKNALYEFKPTEPVKITYSSLLEETIEKIIDKLENSQYKLDEIYARLPKRWIAISLLEKDPDVVNKFSKYPEFIKFVKDLKIEIENEIKHDVESYVVEQRYKKCDEILAGVMVNSELYEDIDTIVIHPVYGSLIFGVVLYTMYNFVFGLGDIFSGFIGSFFEILGNYLMNILPESFSGVIIDGLLAGVGGVLEFFPIVFLIMFSLSTLEDTGYLSRVTALTHSVMSTMGLSGKSFIPMITGFGCSVPALMGTRFISSHKERLITLLVTPLVPCSARFVIIGFFASFFFIEHAALFTLSILAITFAMLFIVSYVLSKFIKGEAEEYIFELPPYRIPDWDNIIKMTWAKSKEFLKKAGTVIAAGSILFYGFVNYPSPDANYAAVVGKIIEHVTQYMGLDWRAAISLIFGIFAKELVVSSFSILYPENISTAFSPLKAFVLTLVSVLYIPCLATLATLYLETRSLKWTAFGIGYNLVLATLVGIITYNIGTMLGF”, the protein production was “failed”. In the case of “MDELAGGGGGGQGMAAPPRPQQGPGGNLSLPPGANGAPGGGGPPAAEAAGPPAGPELSRPQQYTIPGILHYIQHEWARFEMERAHWEVERAELQARIAFLQGERKGQENLKKDLVRRIKMLEYALKQERAKYHKLKYGTELNQGDLKMPTFESEETKDVEAPPAPQNSQLTWKQGRQLLRQYLQEVGYTDTILDVRSQRVRSLLGLSNSEPNGSVEAKNLEQILNGGESPKQKGQEIKRPPGDVLETFNFLENADDSDEEENDMIEGIPEGKDKLRIHKHKIGNEGLAADLTDDPDTEEALKEFDFLVTAEDGEGAGEARSSGDGTEWDKDDLSPTAEVWDVDQGLISKLKEQYKKERKGKKGVKRVNRTNLCDMITDLGDDELPHIPSGIINQSRSASTRMADHEGARAEEAEPITFPSGGGKSFIMGSDDVLLSVLGLGDLADLTVTNDADYSYDLPANKDAFRKTWNPKYTLRSHFDGVRALAFHPVEPVLVTASEDHTLKLWNLQKTVPAKKSASLDVEPIYTFRAHIGPVLSLAISSNGEQCFSGGIDATIQWWNMPSPNVDPYDTYESNVLAGTLVAHTDAVWGLAYSGIKNQLLSCSADGTIRLWNPQEKLPCVCTYNGDKEHGIPTSVDFIGCDPAHMVTSFNTGSAVIYDLETSQSLVMLSSQVDSGLQSSNHINRVVSHPTLPVTITAHEDRHIKFFDNKTGKMIHSMVAHLDAVTSLAVDPNGIYLMSGSHDCSIRLWNLDSKTCVQEITAHRKKLDESIYDVAFHPSKAYIASAGADALAKVFV”, the protein production was “failed”. In the case of “MDELLEKAKKVREAWDVLRNATTREKNKAIKKIAEKLDERRKEILEANRIDVEKARERGVKESLVDRLALNDKRIDEMIKACETVIGLKDPVGEVIDSWVREDGLRIARVRVPIGPIGIIYESRPNVTVETTILALKSGNTILLRGGSDALNSNKAIVSAIREALKETEIPESSVEFIENTDRSLVLEMIRLREYLSLVIPRGGYGLISFVRDNATVPVLETGVGNCHIFVDESADLKKAVPVIINAKTQRPGTCNAAEKLLVHEKIAKEFLPVIVEELRKHGVEVRGCEKTREIVPDVVPATEDDWPTEYLDLIIAIKVVKNVDEAIEHIKKYSTGHSESILTENYSNAKKFVSEIDAAAVYVNASTRFTDGGQFGFGAEIGISTQRFHARGPVGLRELTTYKFVVLGEYHVRE”, the protein production was “not failed”. For “MDERNVSKPAMRGHKLVLNNRTASLVTGVKDVLSFDLNEVLLETEQGMLMVKGTDLHVNRLSLEKGEVDLSGNIDSIAYSDVHAEQKQGENLFARLFR”, the protein production was “failed”. In the case of “MDESAALRAFQDALRTQRPEFGQFFLARLLGLDISYPDGQCLIVFEPQDFLFNPQGSLHGGIIATVMDISMGHLLNHVQGAGLTLEMKTQYLKAVRQGTVYCRGEFLQRGRSVSFLKSTLTDAQGEPLAMATSTWKALSPLEHHHHHH”, the protein production was “not failed”. In the case of “MDETVAEFIKRTILKIPMNELTTILKAWDFLSENQLQTVNFRQRKESVVQHLIHLCEEKRASISDAALLDIIYMQFHQHQKVWDVFQMSKGPGEDVDLFDMKQFKNSFKKILQRALKNVTVSFRETEENAVWIRIAWGTQYTKPNQYKPTYVVYYSQTPYAFTSSSMLRRNTPLLGQELEATGKIYLRQEEIILDITEMKKACN”, the protein production was “failed”. In the case of “MDFDLRWLFIAASLGLCAWAGWQFVHRLARARLLGDVPTSRIRSAAQGFVELYGVLEEGPEGPLQAPLTGKPCLWWRYRIEVEEKRSGREKAWRTVDKGASESPFSLRDATDACLVDPRGAEVRPLTQQRWEAFREAPIDTLRLLESFGTLVGGERLYRYTEERLHAGEPLYALGEFRSSGGGRQGLDAERAQGAVIREWKGDFHGLLARFDSDGNGELDEREWNRVRLAARLEAEDRHRASSAAPTRHRLGKPGEAHPFILSSQGEDDLAVQLRRQAAGAALLCLGSALLAGWLFSRLF”, the protein production was “failed”.
